Test results published in patent US6890526B2, “Methods and reagents for the treatment of multiple sclerosis” (Vanderbilt University, priority 1997, dated 2005).

Tests used:
[1] = test system: MS patients; assay: Treatment of MS patients with combinations of anti-chlamydial agents, case histories (Tables 8-10); assay type: in vivo, human; details: patient; drug stopped, later phased back in
Description: The case histories for these patients are described in Table 9.

[2] = test system: MS patients; assay: Long-term combination therapy of 12 progressive MS patients, EDSS (Table 11); assay type: in vivo, human; details: patient #12; azithromycin substituted
Description: All 12 patients were positive by PCR for the MOMP gene of C. pneumoniae in the CSF. In 10 of 12 patients, the highest Expanded Disability Status Scale (EDSS; Kurtzke, Neurology 33:1444-1152, 1983) score reached was sustained for six months. […] The antibiotic regimen in eight of 12 patients was a combination of rifampin (300 mg twice daily), amoxicillin (500 mg twice daily) and probenecid (500 mg daily).

[3] = test system: MOMP gene of C. pneumoniae; assay: PCR/Southern hybridization of CSF for the MOMP gene; details: CSF PCR signal for the MOMP gene of C. pneumoniae after antibiotics; all patients PCR-positive before therapy
Description: To at least 300 μl of CSF sample, 200 μl of HBSS containing 0.25% trypsin and 1 mM EDTA at pH 7.2 was added to achieve a final concentration of 0.1% trypsin, and the sample vortexed and then incubated at 37° C. for 30 minutes. Following incubation, the sample was again vortexed, centrifuged for 45 minutes at 12,000×g in a microcentrifuge, and the pellet resuspended in 20 μl of lysis buffer (0.5% sodium dodecylsulfate (SDS), 1% NP40, 0.2 M NaCl, 10 μM DTT, 10 mM EDTA, 20 mM Tris-HCl at pH 7.5). To this was added 8 μl of proteinase K (20 μg/ml; Boehringer-Mannheim, Indianapolis, Ind.), after which the specimen was mixed and incubated overnight at 37° C. […]
PCR was carried out using the entire MOMP gene (1.2 kb) using Deep Vent polymerase in the manufacturer's buffer (New England Biolabs, Boston, Mass.) with no additional MgCl2. […] PCR reactions were analyzed by electrophoresis in 1% agarose gel for 45 minutes at 95 volts. For confirmation and enhanced sensitivity, the gels were further analyzed by Southern hybridization using a digoxigenin-labeled (DIG, Boehringer-Mannheim) MOMP gene probe from the TWAR strain of C. pneumoniae (ATCC VR-1310). […]
Nested PCR primers were chosen within the MOMP which are C. pneumoniae specific (located in variable domains 1 and 4) and yield a 727 bp band. […] PCR reactions were analyzed by electrophoresis in 1% agarose gel for 45 minutes at 95 volts. […]

[4] = test system: iNOS; assay: Measurement of NO production (nitrite, Greiss reagent) in splenic macrophage culture supernatants; assay type: cell-based, mouse
Description: (§1) Splenocytes were washed twice in PBS and plated in 24-well culture plates (Corning, Corning, N.Y.) in Dulbecco's minimal essential medium (DMEM; GIBCO BRL, Gaithersburg, Md.) containing 10% fetal calf serum (FCS; Hyclone, Logan, Utah) at 37° C. for two hours. Non-adherent cells were washed away by gentle rinsing in warm medium, and the macrophages were allowed to adhere to the plastic wells overnight. For optimal growth of macrophages, colony stimulating factor-1 (CSF-1) obtained from culture supernatants of LADMAC cells (American Type Tissue Collection (ATCC), Manassas, Va.) was added to reach a final concentration of 20%. After reaching confluence, cells were removed from the plastic wells by gentle trituration and examined for their purity by staining with fluoroscein-conjugated anti-CD11b and anti-I-As (clone 10-3.6) antibodies.
EB antigens were prepared from concentrated C. pneumoniae EBs by treating them with 25 mM DTT, 2% 2-mercaptoethanol, and 2% dodecylsulfate (SDS) for 5 minutes at 100° C. Treated EBs were sonicated, centrifuged (500×g for 30 minutes at room temperature) and the supernatant resuspended at 2 μg/ml protein in PBS pH 7.4. Concentrated C. pneumoniae EBs were obtained by growing C. pneumoniae (VR-1310; ATTC) in 25 ml flasks containing a confluent growth of HL cells (Human Lung Carcinoma Cells; Washington University Foundation, Seattle, Wash.) in DMEM and 10% FCS . Infection was facilitated by two washes with Hank's balanced salt solution (HBSS; GIBCO) followed by a 20 minute pre-incubation with diethylaminoethyl-dextran (30 μg/ml) (DEAE-Dextran; GIBCO) in HBSS. The infectious inoculum (ATCC VR-1310) was added to the flasks in 2 ml of serum-free media. The flasks were then centrifuged at 1,200×g for 1 hour at 4° C. To the spun flasks was added 2 ml of Iscoves medium (GIBCO) containing 4 μg/ml cyclohexamide, 20% FCS, 4 mM L-glutamine (Sigma), and 100 μg/ml gentamicin (Sigma). The flasks were then incubated at 35° C. for three days at which time the infected cells begin to lyse and release EBs. On day 4, the culture flasks were sonicated for 20 seconds, and the cell debris removed by centrifugation at 600×g for five minutes at room temperature. The supernatant containing the infectious EBs was centrifuged at 18,000×g for 30 minutes, and the pellet resolubilized in water containing 25 mM DTT, 2% 2-mercaptoethanol, and 2% SDS.
Preparation of purified rMOMP was performed as follows. The full-length native C. pneumoniae MOMP gene was expressed in the pET-32/a (+) E. coli expression system using a polyhistidine tag (Novagen, Madison, Wis.). Briefly the MOMP was amplified under the same PCR conditions with a NcoI extension on the forward primer and a NotI extension on the reverse primer. The 5′ to 3′ sequence of the forward primer was AGCTTACCATGGTGAATGAAAAAACTCTTAAAGTCGGCG (SEQ ID NO: 9) and the reverse primer was ATATGCGGCCGCTCATTAGAATCTGAACTGACCAGATACG (SEQ ID NO: 10). The product was cut with NotI and NcoI and ligated into the multiple cloning site in a previously linearized pET vector. E. coli was transformed and selectively grown, lysed with a French press, and the protein extract was run over a Ni-chelate column and eluted with […]. […]
NO is rapidly oxidized to nitrite in culture medium. […] After a 10 minute incubation at room temperature, the absorbance was read at 550 nm. Nitrite concentrations were calculated from a sodium nitrite standard curve.

[5] = test system: iNOS (NOS2) gene; assay: RT-PCR for iNOS (NOS2) gene products in splenic macrophages; assay type: cell-based, mouse; details: β-IFN alone; compared with GAPDH mRNA (FIG. 12A)
Description: as §1
Mouse splenic macrophages were homogenized in TRI reagent (Molecular Research Center, Cincinnati, Ohio), and total RNA was extracted according to the manufacturer's protocol. […]

[6] = test system: IL-12/p40; assay: Sandwich ELISA for IL-12/p40 in macrophage culture supernatants; assay type: cell-based, mouse
Description: as §1
IL-12/p40 in culture supernatants was quantitated using sandwich ELISA methodology. Antibody C17.15 was coated onto ELISA plates at 2 μg/ml in 100 μl of carbonate buffer at pH 9.3. After overnight incubation at 4° C., excess antibody was washed off, and the plates were blocked by addition of PBS containing 3% BSA. Samples and standards were plated in triplicate and incubated overnight at 4° C. […] The absorbance was read at 405 nm and sample concentrations of IL-12/p40 were calculated from a rIL-12/p40 standard curve.

Cc1ncc([N+](=O)[O-])n1CCO [metronidazole, Metronidazole]
side effects [1]: side effects

CO[C@H]1/C=C/O[C@@]2(C)Oc3c(C)c(O)c4c(O)c(c(/C=N/N5CCN(C)CC5)c(O)c4c3C2=O)NC(=O)/C(C)=C\C=C\[C@H](C)[C@H](O)[C@@H](C)[C@@H](O)[C@@H](C)[C@H](OC(C)=O)[C@@H]1C [rifampin]
side effects [2]: gastrointestinal side effects

CC[C@H]1OC(=O)[C@H](C)[C@@H](O[C@H]2C[C@@](C)(OC)[C@@H](O)[C@H](C)O2)[C@H](C)[C@@H](O[C@@H]2O[C@H](C)C[C@H](N(C)C)[C@H]2O)[C@](C)(O)C[C@@H](C)CN(C)[C@H](C)[C@@H](O)[C@]1(C)O [azithromycin]
PCR Signal Post-antibiotics [3]: Absent

B1: β-IFN: Murine β-IFN obtained commercially (Bio-Source International); type-1 interferon (protein, UniProt P01575 22-182, looked up)
Interferon beta: INYKQLQLQERTNIRKCQELLEQLNGKINLTYRADFKIPMEMTEKMQKSYTAFAIQEMLQNVFLVFRNNFSSTGWNETIVVRLLDELHQQTVFLKTVLEEKQEERLTWEMSSTALHLKSYYWRVQRYLKLMKYNSYAWMVVRAEIFRNFLIIRRLTRNFQN
nitrite levels ([4]; 10 U of β-IFN added to EB antigen-treated macrophages, 48 hours (FIG. 10)): 27.3 ± 0.4 µM
increase in NO ([4]; 10 U of β-IFN, macrophages cultured with LPS): 35%
increase in the nitrite level ([4]; 10 U of β-IFN, macrophages incubated with 2 μg/ml of rMOMP): 47%
nitrite levels in supernatants ([4]; prior addition of 1000 U of β-IFN to EB antigen-treated cultures, 48 hours (FIG. 9)): 19.6 µM
nitrite levels in macrophage culture supernatants ([4]; β-IFN alone, no antigen): did not increase nitrite levels
RT-PCR signals for NOS2 gene [5]: increased RT-PCR signals for NOS2 gene
suppression of induction of IL12/p40 ([6]; 10 U of β-IFN, EB antigens): 78%
IL-12/p40 levels ([6]; macrophages pretreated with β-IFN, then EB antigens for 48 hours (FIG. 14)): 1.5 ± 0.09 ng/mL
